Article PMC5766580, “Each protomer of a dimeric YidC functions as a single membrane insertase” (Scientific Reports, 2018)

Biological target: the molecule itself
Assay: native gel or EMSA; Blue Native PAGE of inner membrane vesicles from a cell lysate, Western blot

B1: cysteine-less YidC (YidC0), monomeric construct (natural protein, E. coli, UniProt P25714 1-548, looked up)
chain: MDSQRNLLVIALLFVSFMIWQAWEQDKNPQPQAQQTTQTTTTAAGSAADQGVPASGQGKLISVKTDVLDLTINTRGGDVEQALLPAYPKELNSTQPFQLLETSPQFIYQAQSGLTGRDGPDNPANGPRPLYNVEKDAYVLAEGQNELQVPMTYTDAAGNTFTKTFVLKRGDYAVNVNYNVQNAGEKPLEISSFGQLKQSITLPPHLDTGSSNFALHTFRGAAYSTPDEKYEKYKFDTIADNENLNISSKGGWVAMLQQYFATAWIPHNDGTNNFYTANLGNGIAAIGYKSQPVLVQPGQTGAMNSTLWVGPEIQDKMAAVAPHLDLTVDYGWLWFISQPLFKLLKWIHSFVGNWGFSIIIITFIVRGIMYPLTKAQYTSMAKMRMLQPKIQAMRERLGDDKQRISQEMMALYKAEKVNPLGGSFPLLIQMPIFLALYYMLMGSVELRQAPFALWIHDLSAQDPYYILPILMGVTMFFIQKMSPTTVTDPMQQKIMTFMPVIFTVFFLWFPSGLVLYYIVSNLVTIIQQQLIYRGLEKRGLHSREKKKS
notes: membrane insertase YidC of E. coli, the plasmid-encoded yidC gene; cysteine 423 replaced by serine; Copies 2 is the dimeric form seen on Blue Native PAGE. 'Full length' rests on the words 'the yidC gene'; also called YidC-C0; monomeric YidC0; source: E. coli MK6, from plasmid pGZ119-YidC0, in inner membrane vesicles from a cell lysate
With B1 the “stoichiometry N” value was 2.
